Results on two molecules are retold here after PMC10397247.

The target of one assay is T1, 4H3417-AA.
T1 chain: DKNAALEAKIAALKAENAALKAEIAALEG
The assay is described as follows: two-hybrid library CCmax.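 Note: natural log of median RNA to DNA barcode read ratio; higher means stronger binding.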 To be noted: mean of both orientations.

In the next assay the target is T2, 4H2948-AA.
T2 chain: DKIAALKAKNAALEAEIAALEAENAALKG
Nature of the assay: two-hybrid library CCmax.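 Note: natural log of median RNA to DNA barcode read ratio; higher means stronger binding.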 Conditions: mean of both orientations.

For another assay, the target named is T3, 4H2283-AA.
T3 chain: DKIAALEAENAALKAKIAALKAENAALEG
The assay is described as follows: two-hybrid library CCmax.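 Note: natural log of median RNA to DNA barcode read ratio; higher means stronger binding.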 Conditions: mean of both orientations.

The next assay has as its target T4, 4H3628-AA.
T4 chain: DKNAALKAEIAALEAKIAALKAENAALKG
The assay is described as follows: two-hybrid library CCmax.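 Note: natural log of median RNA to DNA barcode read ratio; higher means stronger binding.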 To be noted: mean of both orientations.

The target in a further assay is T5, 4H3446-AA.
T5 chain: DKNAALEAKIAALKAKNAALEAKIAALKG
The assay is described as follows: two-hybrid library CCmax.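 Note: natural log of median RNA to DNA barcode read ratio; higher means stronger binding.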 To be noted: mean of both orientations.

In a further assay the target is T6, 4H3102-AA.
T6 chain: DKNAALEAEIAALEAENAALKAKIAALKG
Nature of the assay: two-hybrid library CCmax.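 Note: natural log of median RNA to DNA barcode read ratio; higher means stronger binding.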 To be noted: mean of both orientations.

The target of the next assay is T7, 4H971-AA.
T7 chain: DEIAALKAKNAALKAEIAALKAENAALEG
The assay is described as follows: two-hybrid library CCmax. To be noted: mean of both orientations.

The target of the next assay is T8, 4H3121-AA.
T8 chain: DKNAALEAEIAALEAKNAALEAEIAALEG
The assay is described as follows: two-hybrid library CCmax. To be noted: mean of both orientations.

The target of a further assay is T9, 4H497-AA.
T9 chain: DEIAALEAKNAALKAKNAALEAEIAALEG
Nature of the assay: two-hybrid library CCmax. To be noted: mean of both orientations.

The target of the next assay is T10, 4H1146-AA.
T10 chain: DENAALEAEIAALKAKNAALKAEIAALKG
Nature of the assay: two-hybrid library CCmax. To be noted: mean of both orientations.

For a further assay, the target named is T11, 4H2742-AA.
T11 chain: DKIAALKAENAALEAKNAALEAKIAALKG
The assay is described as follows: two-hybrid library CCmax. To be noted: mean of both orientations.

The target in the next assay is T12, 4H1809-AA.
T12 chain: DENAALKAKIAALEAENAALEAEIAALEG
Nature of the assay: two-hybrid library CCmax. Conditions: mean of both orientations.

The target of another assay is T13, 4H2248-AA.
T13 chain: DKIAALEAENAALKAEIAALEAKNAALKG
Nature of the assay: two-hybrid library CCmax. To be noted: mean of both orientations.

The target in a further assay is T14, 4H2713-AA.
T14 chain: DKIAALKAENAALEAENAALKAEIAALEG
Nature of the assay: two-hybrid library CCmax. Conditions: mean of both orientations.

A further assay concerns the target T15, 4H391-AA.
T15 chain: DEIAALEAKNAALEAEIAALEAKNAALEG
Nature of the assay: two-hybrid library CCmax. To be noted: mean of both orientations.

The target in a further assay is T16, 4H3709-AA.
T16 chain: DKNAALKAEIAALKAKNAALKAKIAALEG
Nature of the assay: two-hybrid library CCmax. To be noted: mean of both orientations.

A further assay concerns the target T17, 4H189-AA.
T17 chain: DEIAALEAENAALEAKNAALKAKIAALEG
Nature of the assay: two-hybrid library CCmax. Conditions: mean of both orientations.

The target in the next assay is T18, 4H675-AA.
T18 chain: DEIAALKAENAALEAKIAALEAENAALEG
The assay is described as follows: two-hybrid library CCmax. Conditions: mean of both orientations.

In another assay the target is T19, 4H3066-AA.
T19 chain: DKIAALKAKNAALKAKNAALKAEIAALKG
Nature of the assay: two-hybrid library CCmax. Conditions: mean of both orientations.

Another assay concerns the target T20, 4H478-AA.
T20 chain: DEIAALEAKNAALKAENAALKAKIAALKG
The assay is described as follows: two-hybrid library CCmax. Conditions: mean of both orientations.

A further assay addresses T21, 4H1391-AA.
T21 chain: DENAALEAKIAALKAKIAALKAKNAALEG
Nature of the assay: two-hybrid library CCmax. To be noted: mean of both orientations.

The next assay has as its target T22, 4H3591-AA.
T22 chain: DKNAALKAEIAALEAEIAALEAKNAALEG
The assay is described as follows: two-hybrid library CCmax.

The next assay addresses T23, 4H428-AA.
T23 chain: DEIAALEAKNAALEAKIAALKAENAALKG
Nature of the assay: two-hybrid library CCmax. To be noted: mean of both orientations.

The target in the next assay is T24, 4H3029-AA.
T24 chain: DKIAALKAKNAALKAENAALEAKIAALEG
The assay is described as follows: two-hybrid library CCmax. Conditions: mean of both orientations.

A further assay has as its target T25, 4H656-AA.
T25 chain: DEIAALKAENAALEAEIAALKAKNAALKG
Nature of the assay: two-hybrid library CCmax. Conditions: mean of both orientations.

Another assay deals with T26, 4H3920-AA.
T26 chain: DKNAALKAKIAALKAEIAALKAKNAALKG
Nature of the assay: two-hybrid library CCmax. Conditions: mean of both orientations.

A further assay addresses T27, 4H1348-AA.
T27 chain: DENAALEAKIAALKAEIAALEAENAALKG
Nature of the assay: two-hybrid library CCmax. To be noted: mean of both orientations.

For another assay, the target named is T28, 4H1854-AA.
T28 chain: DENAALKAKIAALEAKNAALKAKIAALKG
Nature of the assay: two-hybrid library CCmax. Conditions: mean of both orientations.

The next assay has as its target T29, 4H3666-AA.
T29 chain: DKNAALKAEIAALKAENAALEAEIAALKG
Nature of the assay: two-hybrid library CCmax. To be noted: mean of both orientations.

A further assay concerns the target T30, 4H1109-AA.
T30 chain: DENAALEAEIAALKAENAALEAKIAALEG
Nature of the assay: two-hybrid library CCmax.

In another assay the target is T31, 4H2991-AA.
T31 chain: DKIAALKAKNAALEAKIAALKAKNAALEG
The assay is described as follows: two-hybrid library CCmax. To be noted: mean of both orientations.

The next assay concerns the target T32, 4H146-AA.
T32 chain: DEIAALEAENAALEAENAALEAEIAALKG
The assay is described as follows: two-hybrid library CCmax. To be noted: mean of both orientations.

A further assay concerns the target T33, 4H3939-AA.
T33 chain: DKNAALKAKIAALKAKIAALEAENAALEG
Nature of the assay: two-hybrid library CCmax. Conditions: mean of both orientations.

A further assay deals with T34, 4H342-bN.
T34 chain: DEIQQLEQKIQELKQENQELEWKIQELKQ
The assay is described as follows: two-hybrid library CCNG1.

In another assay the target is T35, 4H491-bN.
T35 chain: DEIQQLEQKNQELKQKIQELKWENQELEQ
Nature of the assay: two-hybrid library CCNG1.

The target in the next assay is T36, 4H48-bN.
T36 chain: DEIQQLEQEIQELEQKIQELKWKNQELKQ
The assay is described as follows: two-hybrid library CCNG1.

The target of another assay is T37, 4H2937-bN.
T37 chain: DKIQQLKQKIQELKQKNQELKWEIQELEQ
The assay is described as follows: two-hybrid library CCNG1.

Another assay addresses T38, 4H2944-bN.
T38 chain: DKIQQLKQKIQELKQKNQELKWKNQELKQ
Nature of the assay: two-hybrid library CCNG1.

In the case of DENAALEAEIAALKAENAALEAKIAALEG [4H1109-AA], the interaction score in the assay with 4H3417-AA is 0.592; with 4H2948-AA, -1.16; in the assay with 4H2283-AA, -0.782; with 4H3628-AA it was -1.06; with 4H3446-AA, -0.106; in the assay with 4H3102-AA, 1.35. The interaction score was 0.0745 with 4H971-AA; -0.8 with 4H3121-AA; -1.77 with 4H497-AA; 1.4 with 4H1146-AA; -1.33 with 4H2742-AA; -1.32 with 4H1809-AA. The interaction score with 4H2248-AA is -0.482; with 4H2713-AA, -1.49; with 4H391-AA it was -1.46; with 4H3709-AA it was 2.13; in the assay with 4H189-AA, -0.821; in the assay with 4H675-AA, -0.943. The interaction score with 4H3066-AA was -0.41; with 4H478-AA, -1.55; in the assay with 4H1391-AA, -1.71; with 4H3591-AA, -1.05; with 4H428-AA, -1.21; in the assay with 4H3029-AA it was -0.926. Besides, the interaction score with 4H656-AA was -1.33; with 4H3920-AA, -1.35; with 4H1348-AA, -1.31; in the assay with 4H1854-AA it was 1.5; with 4H3666-AA, 0.67; with 4H1109-AA, 0.484. Besides, the interaction score is -0.637 with 4H2991-AA, -1.63 with 4H146-AA and -1.76 in the assay with 4H3939-AA.

In the case of DKIQQLKQKIQELKQKNQELKWEIQELEQ [4H2937-bN], the interaction score was 1.46 in the assay with 4H342-bN; -1.11 with 4H491-bN; -0.313 with 4H48-bN; -0.616 with 4H2937-bN; -1.12 with 4H2944-bN.
